Laboratory results reported in US20210221914A1.

What was measured:
CD64 (FcgammaRI) = CD64 (FcgammaRI) (UniProt P12314); assay: SPR, single-cycle kinetics, bivalent analyte model
CD32a167H = CD32a167H (UniProt P12318); assay: SPR, BIAcore 8K, antibody captured on anti-Fab chip, steady state affinity fit
CD32a167R = CD32a167R (UniProt P12318); assay: as above
CD32b (FcgammaRIIb) = CD32b (FcgammaRIIb) (UniProt P31994); assay: as above
CD16a176F = CD16a176F (UniProt P08637); assay: SPR, BIAcore 8K, antibody captured on anti-Fab chip, single-cycle kinetics, bivalent analyte model
Sequence of CD16a176F (P08637 17-208 limits assumed): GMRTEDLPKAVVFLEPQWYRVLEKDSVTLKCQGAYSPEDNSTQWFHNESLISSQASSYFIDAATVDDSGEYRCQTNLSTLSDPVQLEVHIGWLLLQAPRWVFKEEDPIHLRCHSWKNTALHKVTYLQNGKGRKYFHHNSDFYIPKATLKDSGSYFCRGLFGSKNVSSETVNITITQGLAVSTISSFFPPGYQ

CD16a176V = CD16a176V (UniProt P08637); assay: as above
Sequence of CD16a176V (P08637 17-208 F176V limits assumed): as the sequence (P08637 17-208 limits assumed) above, with F160V counted along it

CD16b (FcgammaRIIIb) = CD16b (FcgammaRIIIb) (UniProt O75015); assay: as above

Sequence of CD32b (FcgammaRIIb) (P31994 46-217 limits assumed): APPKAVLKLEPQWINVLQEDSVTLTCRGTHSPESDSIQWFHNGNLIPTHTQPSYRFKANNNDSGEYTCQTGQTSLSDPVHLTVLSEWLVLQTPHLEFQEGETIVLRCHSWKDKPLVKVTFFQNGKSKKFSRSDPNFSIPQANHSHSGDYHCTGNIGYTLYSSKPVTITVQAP
Sequence of CD32a167H (P12318 36-218 limits assumed): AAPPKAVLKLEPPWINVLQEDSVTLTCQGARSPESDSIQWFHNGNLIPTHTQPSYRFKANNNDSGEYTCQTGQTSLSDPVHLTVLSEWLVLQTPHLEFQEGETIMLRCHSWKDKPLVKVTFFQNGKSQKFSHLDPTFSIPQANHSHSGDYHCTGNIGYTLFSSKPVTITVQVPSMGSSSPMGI
Sequence of CD32a167R (P12318 36-218 H167R limits assumed): as the sequence (P12318 36-218 limits assumed) above, with H132R counted along it
Sequence of CD64 (FcgammaRI) (P12314 16-288 limits assumed): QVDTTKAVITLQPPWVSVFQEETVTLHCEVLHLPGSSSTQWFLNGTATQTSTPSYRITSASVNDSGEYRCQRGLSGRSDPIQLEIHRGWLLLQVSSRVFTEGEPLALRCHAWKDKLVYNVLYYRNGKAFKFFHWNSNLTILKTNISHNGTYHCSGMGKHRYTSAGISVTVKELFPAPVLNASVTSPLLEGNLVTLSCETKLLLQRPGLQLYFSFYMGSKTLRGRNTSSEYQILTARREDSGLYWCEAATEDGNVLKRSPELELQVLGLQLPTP

Substance | fold increase in off-rate relative to CD-WT (CD64 (FcgammaRI)) [fold] | Kd (CD32a167H) [nM] | Kd (CD32a167R) [nM] | Kd (CD32b (FcgammaRIIb)) [nM] | Kd (CD16a176F) [nM] | koff (CD16a176F) [s⁻¹] | kon (CD16a176F) [M⁻¹ s⁻¹] | Kd (CD16a176V) [nM] | koff (CD16a176V) [s⁻¹] | kon (CD16a176V) [M⁻¹ s⁻¹] | Kd (CD16b (FcgammaRIIIb)) [nM] | koff (CD16b (FcgammaRIIIb)) [s⁻¹] | kon (CD16b (FcgammaRIIIb)) [M⁻¹ s⁻¹]
CD-GLU antibody (human IgG1, m1,17 allotype, CD loop replaced by the Glu epitope YMPMENNY) | 1.2 | 505 | 488 | 1610 | 1050 | 0.189 | 181000 | 334 | 0.146 | 438000 | 556 | 0.168 | 302000
CD-WT antibody (human IgG1, m1,17 allotype, wild-type CD loop) | – | 450 | 439 | 1530 | 869 | 0.185 | 213000 | 241 | 0.181 | 751000 | 426 | 0.166 | 389000
